Protein production data for 21 sequences are collected here from a protein production outcome set (Wang et al. 2014).
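Further: failed if final PepcDB status was selected cloned or expressed and not failed if soluble or beyond.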

The nature of the data set: label from the status in PepcDB records.
On to “MSKKVIADVFLEVANAIESGEFGKKVKIGVTTLGSEHGVENMVNGAQLAKSNLFDIVLIGPKVETDLEVVEVNDEKEMHAKMEELLDSGYIDACVTMHYNFPIGVSTVGRVITPAKGKEMILATTTGTSATNRIEAMVRNAIYGIATAKSMGNKCPKVGILNVDGARQVEKCLKELKDNGYDMEFADSIRADGGCVMRGNDLLVGAPDVMVTDTLSGNIFMKVFSSYTTGGDYEAQGFGYGPGVGEDYDRKVLIVSRASGSPVVANALKYAYDVVKGDISNVARNEFAKVKKAKFDDIISSLTKKEVKAEKVEVKMPDKEIVTRQIAGVDIMDLEDAVSELWKNGIYAESGMGCTGPIVLVNEAKGDLAVETLVKAGYTAK”, for which the protein production entry was “failed”.

For “MSKLIVPQWPQPKGVAACSSTRIGGVSLPPYDSLNLGAHCGDNPDHVEENRKRLFAAGNLPSKPVWLEQVHGKDVLKLTGEPYASKRADASYSNTPGTVCAVMTADCLPVLFCNRAGTEVAAAHAGWRGLCAGVLEETVSCFADNPENILAWLGPAIGPRAFEVGGEVREAFMAVDAKASAAFIQHGDKYLADIYQLARQRLANVGVEQIFGGDRCTYTENETFFSYRRDKTTGRMASFIWLI”, the protein production result is recorded as “not failed”.

With “MSKLSIRNLTKIFGPHPEKALGLLEQGLGKEEIHRRTSHAVGVDRASFDVEEGEIVVVMGLSGSGKSTLVRCLNRLIEPTAGTVTVDGRDVTSMPVDELRRLRQRSFGMVFQNFALFPHRTVLQNAAFGLEAMGVPRAERERQAMVSLERVGLAEWAASRPAQLSGGMQQRVGLARALSLDPDILLMDEAFSALDPLIRRDMQDELLRLQDDLQKTIVFISHDLDEALKLGDRIVLMRDGAVVQIGTPEDILTNPADDYVARFVGEADVTKVLTAGSVMKRSEAVAVLGIDGPRTALRKMRRNAIATLFVLDERHRLVGLITADDAARLAAEGVRELGSIVRRDIATVPPEAPATELISLMADLPHPLAVVDERGRLAGVIVRGLLLGALAERGGVALEHHHHHH”, the protein production result is “not failed”.

As for “MSKNIGLNAIEMSYLRQSLSLSAAQVGQLTNHSEAEVLAWENAETQAPELAQKKLLDIDDIIEMQVLNTTDGIEALFKKEPKRHLAFVVYPTQAIYTQYNPEFLSSLPLTELYNTAAWRIKKECKLVLEVDVSLINLNVEAYKAYREQNGLSESRESRAKWAATQL”, the protein production entry is on record as “not failed”.

With “MSKNYQVLAKKIIDIVGVDNVESVTHCQTRLRFVVKDPKQIDKAALEDLDEVKGVFFGSGQYQVIIGTGVVNDVYDAIEKLHLVNAIYSQETTTTPTPDNQKSPLQRFMAMLSGIFIPIIPVIAATGLFLGLQSALTNNQVLQLFGTSSAAIPASLNTVISVLTGTVFSFLPALIVWSTFRYFKGTPIVGIVIGLMLVSPSLPNAYSVAGGTAKAIMLFDRIPVIGSQGSVLTALVAGFLGSKLEHYFHKHVPNVLDQILTPFLTMLVTFGIMILGVGPVVHWIENVMISGVEGLINLPFGIGGFLIGAAYPLMVLVGIHQMMIAIETSLLAATKLNPLITLEAMYGFANLGVALAMILRAKSQKAKANFIGAFSSQLFGVSEPTLFGVLIRYNFKPLVVTVLTSGIGAGVLSVMSVAANSYGLAVVPSYLMYIYNVRDLLIYTVVSLLTVAVAFIATNMFAIPKDILKSDQVQPKIVDDTIFSPVSGKSIALSTVNDPVFASKMMGDGIAIKPQEQGPVKVYAPQSGQMSVVADTGHAYGLTTNNGVELLIHIGIDTVSLKGQGFKVIVKPGQTVQKGDLLGEFDSTVLKAANLDDTVMVIVTNSKNYQRIESEPNQSIQSGAALLAIQGRPEMTTATAS”, the protein production entry was “failed”.

Regarding “MSKPFMFEKPFGMRDTLPEWYKTKKNICDQMTEEINLWGYDMIETPTLEYYETVGVVSAILDQQLFKLLDQQGNTLVLRPDMTAPIARLVASSLKDRAYPLRLAYQSNVYRAQQNEGGKPAEFEQLGVELIGDGTASADGEVIALMIAALKRAGLSEFKVAIGHVGYVNALLMDVVGNEQRADRLRRFLYEKNYVGYREHVKSLNLSTIDKSRLMNLLSLRGGRAAIEEARGLIQTEKGKTALAEMTKLYEVLESYGASEYVKFDLTLVLHMSYYTGVVFEGYGNRLGVPLCSGGRYDELLSKFHRPAQATGFGVRIDLLVEALNGEIISNGHEQTCILFSNERRFEAIELARKKRANGEAVVLQDLAGVTDVDAMSSNYQDVIYCIGTAGRGGEDA”, the protein production entry is on record as “not failed”.

Regarding “MSKPGTPKHGAGSSSAAAAPEKISKYNISTEKCGDLTVIVQGDLSQQEKRAVFITVHDLGCNHNSFQEFVSSPCMTEIKERSCFIHVDVPGHADNAEALADGFPFPSLQSLGEDLVTVLDYLHVKYVIGLGEGAGANVLARFGLAHPSRVLGLILINATGSAASVVQSFKNKFISWKSDEVAQSAESFLMYHKFGHQIVGENPDKEKIVAEYQKRLHRSLNSKNIGLYVKAFMNRKDLTLKGCKVDVILITGMLSPYASMVEKLHRDVEKERVTILKIERAGDVLADAPGKVAQSILLFCKGQGLLTSVVMPGVDRGRAFSTASSGSLEGANGSRRLSRGISMEDYDKPNIRRLSIMNSELPKKE”, the protein production entry is recorded as “failed”.

For “MSKPHALRGVLANLISESQSPLTPESIIREFRATSDRRLPACDLIKVLVSISEKRPNFAEVTKEISHILQNKDPMYALLVFVERYSECKPVSESSSSTSLSAMGLPHGNKTSDVNSAAGSVPTTLAIASTSTILTTSQNVSGSTRLSLTQSQDFPTSTPVNCKKATESDTTPVVFVRRGPMDRNRGAGKDERNDLSVIKERVLNAVSDQSLSGYRSVTNKTGNSPKSMPNDLVTLTDVPDEYRTHLLWEYYKVDGDKVPRAEIAAMPLLSQESMLLDELLHCLTGIRESLLVPQKPIISAVGLAKYDTDFDIHTHLDRSLTHQVREILPLASYFMGVQKIIAATDGLGQVMNSLNEALQELTHDFYLIIVQAEQELRHNRLTLQKLLYYLQPTMWVMHEVWSSLVIIQLSDSRDAEVLTYLHERIKRLEGNKDAQQLIIGLVRKAAKPYMRMLQMWIQKGVIVDRHREFLVVDNEVIHRDELPEHYSDDYWERRYTLRDEQIPSFLAKYSDKILRTGKYLNVIRQCGKRVMPTQEMNLEFDPTSERHVSVINDAYYFAARMLLDVLLTENDLMGHLQSVKRYLLLNQGDFTMQFMDACEDELTKNVDHVLPMTLENLLGLTLRISSARNDPYKDDLHCELLPYDLVTQMSKIMKKEENWQAQPRLDLSGLECFAFTYEVKWPCSLVLNHISISKYQMLFRQLFYCKHVERQLCKIWKENSIARQFEPQAASLYRAAFTLRQRMMNAIQNLEYYMMIEIIEPNWHIFIEKMKTVENVDNVLRLHQDFLDSCLKNCMLTESSHLNRSIFKLCKICLKYCEFIQITQRYFQDAELRSMVRDSADSSESEQESLHCPQIETPLDPTDTFSERVRRFDLEFTQLLISFLKQINSMAKKNTADCFMNLVHRINFNAFYTDQMDKMCVEDAIG”, the protein production entry is listed as “failed”.

For “MSKPPLFFIIIIALIVVAASFRFVQQRREKAANEAAPLQQKQVVVSNKREKPVNDRRSRQQEVIPAGTSMRYEVSFKPLNGGLEKTFRLQAQQYHALTVGDQGTLSYKGTRFVGFVSRTPDNE”, the protein production result is “failed”.

With “MSKQIPVQDVTPPAKGDTNNNDLYAKREKIYTRAFTGIFRRLRMVGGAALFLLYFGTVWLNWSGRQAVWWDLPERKFYIFGATFWPQDFMLLSWLLIVCAFGLFFITVFAGRVWCGYTCPQSVWTWIYMWCEKVTEGDRNQRIKLDKAPMSGNKLLRKTAKHSLWLLIGLVTGLTFVGYFSPIRELIPELLTGQADGWAYFWVGFFTLATYGNAGWLREQVCIYMCPYARFQSVMFDKDTLIVSYDPRRGEKRGPRKKSLDYKAQGLGDCIDCTMCVQVCPTGIDIRDGLQIECIGCAACIDACDSIMEKMNYPKGLISYTTEHNLNGQKTHLARPRLIGYAIALVLMISALITAVVLRPLVGFDVSKDRVLYRENELGRIENVYSLKIMNKDQQDHTYILGAKGLEGLTLEGRRELKVAAGDILNLPMELSIEPEKLPSTTNEIVFTIESADDPSIHKEAKSRFIGPRTR”, the protein production result is recorded as “failed”.

With “MSKQSVKKIISFSLTIIIAIVMLGLLKNLFSQSDDKALSEAIRNGAFLVDVRTPGEFASGSVAGAVNIPLDRIASRLNELKNKKTIIVFCRSGNRSSQAKSILERNGFSNVLDGGTWGHVASLKGDQ”, the protein production entry is reported as “failed”.

Regarding “MSKRANKLVIVTEKVLLKKVAKIIEEAGATGYTVVDTGGKGSRNVRSTGKPNTSDTDSNVKFEVLTENREMAEKIADQVAIKFFTDYAGIIYICEAEVLYGRTFCGPDGC”, the protein production entry was “not failed”.

Take “MSKSEEKQELPLETSPYTKYEDIEDYKKNAYGTSGHQDVKPGHGGGTTDAPTPSGDAAPSAIDSANQKAKK”: the protein production entry is recorded as “failed”.

As to “MSLAADSADAGFARDMSVHHQQAVEMSYIVRDRTDDEEVRRLAYDIAQTQANQRGMMIGWLDLWALPKVSSDPPMTWMGMGDAPSAGEGSLMPGMATDAEMKKLGTLDGKQAEVYYLQLMTEHHRGGVHMAKGCVERCTVGVEKRLARGMVESQESEIRLMADLLAERGAKEGHHHHHH”, the protein production result is “not failed”.

Regarding “MSLAILTTAYAKIIGLDFSYRKVSTLPIFTKKEDVILSSSHVQTIIYDPSFIADQNTFYLANPAVVIDYFPSKSHRSGIKFSLETFLAMYYKNIAADALADKDLNKSFLYANKAYQLDTDNIETINLLAVIHRRSGDLQTAEAIYKTGMDKGQTNIALLSNYIMLLKSQRRMDEVNTLQDKLNQLDDPDPYQWLGEAYTAKNVGNIKQAEIYFKKALSKAPYLNQAYMGLYKIYIKQNKLKKAQTMLVKALEWTYELDERKLYKYKLYNIEHNIAAIN”, the protein production result is given as “failed”.

As to “MSLAQIKSLFATRLYHAPLSEHGPALDPAEFAASCYSIAEDDDAGQEWCEREGYPGYTSYASLTDLPWRFPIFADLVKSLDAHVAAFAEDLEFELDGKALRLEDIWINILPEGGVHGSHIHPHSVISGTTYVAMPEGTSALKLEDPRLPFMMAAPTRRKGAREELRTFRSVAPKVGDVLLWESWLRHEVPMNMAEEDRISVSFNYAWGEGHHHHHH”, the protein production entry was “not failed”.

“MSLARVLLNIHGTGDTVVLALCDEDLLGVELKYKGRTLHISEPFYSGKSMEPDRAAKKIREAVQEYEDEKTVAINALGELACSVVVDAGLAREDEIGELGGVPHVQMYILPREPFLEGHHHHHH”: the protein production entry is recorded as “not failed”.

Regarding “MSLASFPVQILPNLYLGSARDSANLESLAKLGIRYILNVTPNLPNFFEKNGDFHYKQIPISDHWSQNLSRFFPEAIEFIDEALSQNCGVLVHSLAGVSRSVTVTVAYLMQKLHLSLNDAYDLVKRKKSNISPNFNFMGQLLDFERSLREGHHHHHH”, the protein production entry was “not failed”.

For the sequence “MSLATEGNGKVIHLTKAEFLAKVYNFEKNPEEWKYEGDKPAIVDFYADWCGPCKMVAPILDELAKEYDGQIVIYKVDTEKEQELAGAFGIRSIPSILFIPMEGKPEMAQGAMPKASFKKAIDEFLLKKEGHHHHHH”, the protein production entry is listed as “not failed”.

With “MSLAVKPGEPLPDFLLLDPKGQPVTPATVSKPAVIVFWASWCTVCKAEFPGLHRVAEETGVPFYVISREPRDTREVVLEYMKTYPRFIPLLASDRDRPHEVAARFKVLGQPWTFVVDREGKVVALFAGRAGREALLDALLLAGADLEGHHHHHH”, the protein production entry is on record as “not failed”.

Consider “MSLDGMPAKQQHNNTGESVELHFHYPIKGKQEPKNSHLVVLIEPKIEINKVIPESYQKEFEKSLFLQLSSFLERKGYSVSQFKDASEIPQDIKEKALLVLRMDGNVAILEDIVEESDALSEEKVIDMSSGYLNLNFVEPKSEDIIHSFGIDVSKIKAVIERVELRRTNSGGFVPKTFVHRIKETDHDQAIRKIMNQAYHKVMVHITKELSKKHMEHYEKVSSEMKKRKEGHHHHHH”, for which the protein production entry is given as “not failed”.
